Measurements reported in patent publication JP2014141434A (dated 2014).

Experiments:
Experiment in all cases: flow cytometry, transfected HEK293 cells, 10 μg/mL
[1] = target: T1, N末端FLAG−tag付加型カニクイザルROBO4 cynoROBO4−1 (cynomolgus monkey, UniProt Q8WZ75 28-1007 (human entry))
T1 construct: also called pCI−FLAG−cynoROBO4−1
T1 chain: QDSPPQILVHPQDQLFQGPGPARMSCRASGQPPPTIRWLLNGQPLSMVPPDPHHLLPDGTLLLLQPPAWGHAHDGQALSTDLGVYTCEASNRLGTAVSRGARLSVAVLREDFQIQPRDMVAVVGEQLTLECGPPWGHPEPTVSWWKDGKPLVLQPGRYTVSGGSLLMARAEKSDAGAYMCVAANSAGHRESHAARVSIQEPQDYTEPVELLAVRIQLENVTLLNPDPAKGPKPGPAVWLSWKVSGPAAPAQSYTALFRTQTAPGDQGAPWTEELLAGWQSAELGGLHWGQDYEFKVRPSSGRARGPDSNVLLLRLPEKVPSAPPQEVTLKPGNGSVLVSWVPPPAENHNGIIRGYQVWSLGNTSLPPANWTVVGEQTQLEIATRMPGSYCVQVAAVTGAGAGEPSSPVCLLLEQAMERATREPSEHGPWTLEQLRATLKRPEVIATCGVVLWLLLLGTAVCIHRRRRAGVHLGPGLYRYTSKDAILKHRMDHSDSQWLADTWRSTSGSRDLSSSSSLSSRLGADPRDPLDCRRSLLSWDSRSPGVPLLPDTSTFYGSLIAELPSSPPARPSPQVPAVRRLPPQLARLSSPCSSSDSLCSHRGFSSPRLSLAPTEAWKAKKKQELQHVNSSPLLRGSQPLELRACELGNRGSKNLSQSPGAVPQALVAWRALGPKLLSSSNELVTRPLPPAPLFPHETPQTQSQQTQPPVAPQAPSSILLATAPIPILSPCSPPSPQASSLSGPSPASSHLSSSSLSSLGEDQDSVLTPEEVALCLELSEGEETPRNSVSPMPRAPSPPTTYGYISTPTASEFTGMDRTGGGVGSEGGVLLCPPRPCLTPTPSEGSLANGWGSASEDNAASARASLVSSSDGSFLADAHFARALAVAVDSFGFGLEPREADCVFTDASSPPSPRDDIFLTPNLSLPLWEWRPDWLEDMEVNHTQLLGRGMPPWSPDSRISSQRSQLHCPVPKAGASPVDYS

[2] = target: T2, N末端FLAG−tag付加型カニクイザルROBO4 cynoROBO4−2 (cynomolgus monkey, UniProt Q8WZ75 28-1007 (human entry))
T2 construct: also called pCI−FLAG−cynoROBO4−2
T2 chain: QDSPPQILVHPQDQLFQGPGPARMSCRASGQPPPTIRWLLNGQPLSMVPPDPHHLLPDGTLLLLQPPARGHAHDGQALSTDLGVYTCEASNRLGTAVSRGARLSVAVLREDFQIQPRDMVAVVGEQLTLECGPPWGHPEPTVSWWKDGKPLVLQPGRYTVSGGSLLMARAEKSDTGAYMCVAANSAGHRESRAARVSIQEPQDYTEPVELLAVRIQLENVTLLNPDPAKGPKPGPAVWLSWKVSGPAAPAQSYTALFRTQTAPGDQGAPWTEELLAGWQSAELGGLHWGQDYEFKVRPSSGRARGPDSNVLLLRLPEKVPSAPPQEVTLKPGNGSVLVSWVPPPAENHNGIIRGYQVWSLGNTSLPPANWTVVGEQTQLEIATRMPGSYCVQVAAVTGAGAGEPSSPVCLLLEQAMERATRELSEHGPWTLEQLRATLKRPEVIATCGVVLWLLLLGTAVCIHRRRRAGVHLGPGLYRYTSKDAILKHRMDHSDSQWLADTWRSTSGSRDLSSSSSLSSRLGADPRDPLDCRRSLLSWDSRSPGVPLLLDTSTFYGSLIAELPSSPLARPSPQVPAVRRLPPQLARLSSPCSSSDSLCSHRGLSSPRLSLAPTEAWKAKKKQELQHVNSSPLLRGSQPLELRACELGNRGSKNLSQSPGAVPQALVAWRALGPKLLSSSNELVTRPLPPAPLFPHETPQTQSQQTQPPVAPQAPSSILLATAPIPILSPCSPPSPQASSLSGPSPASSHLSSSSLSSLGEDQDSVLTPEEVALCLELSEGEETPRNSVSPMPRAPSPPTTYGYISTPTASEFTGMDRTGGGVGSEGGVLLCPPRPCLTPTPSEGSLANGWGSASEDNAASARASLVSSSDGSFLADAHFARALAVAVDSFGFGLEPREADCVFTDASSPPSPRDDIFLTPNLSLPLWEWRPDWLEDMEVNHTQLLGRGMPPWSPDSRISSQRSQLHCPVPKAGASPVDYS

[3] = target: T3, N末端FLAG−tag付加型ヒトROBO4細胞外領域ドメイン欠損体 hROBO4−132 (human, UniProt Q8WZ75 132-1007)
T3 construct: On HEK293 cells; also called pCI−FLAG−hROBO4−132; pCI−hROBO4−132
T3 sequence: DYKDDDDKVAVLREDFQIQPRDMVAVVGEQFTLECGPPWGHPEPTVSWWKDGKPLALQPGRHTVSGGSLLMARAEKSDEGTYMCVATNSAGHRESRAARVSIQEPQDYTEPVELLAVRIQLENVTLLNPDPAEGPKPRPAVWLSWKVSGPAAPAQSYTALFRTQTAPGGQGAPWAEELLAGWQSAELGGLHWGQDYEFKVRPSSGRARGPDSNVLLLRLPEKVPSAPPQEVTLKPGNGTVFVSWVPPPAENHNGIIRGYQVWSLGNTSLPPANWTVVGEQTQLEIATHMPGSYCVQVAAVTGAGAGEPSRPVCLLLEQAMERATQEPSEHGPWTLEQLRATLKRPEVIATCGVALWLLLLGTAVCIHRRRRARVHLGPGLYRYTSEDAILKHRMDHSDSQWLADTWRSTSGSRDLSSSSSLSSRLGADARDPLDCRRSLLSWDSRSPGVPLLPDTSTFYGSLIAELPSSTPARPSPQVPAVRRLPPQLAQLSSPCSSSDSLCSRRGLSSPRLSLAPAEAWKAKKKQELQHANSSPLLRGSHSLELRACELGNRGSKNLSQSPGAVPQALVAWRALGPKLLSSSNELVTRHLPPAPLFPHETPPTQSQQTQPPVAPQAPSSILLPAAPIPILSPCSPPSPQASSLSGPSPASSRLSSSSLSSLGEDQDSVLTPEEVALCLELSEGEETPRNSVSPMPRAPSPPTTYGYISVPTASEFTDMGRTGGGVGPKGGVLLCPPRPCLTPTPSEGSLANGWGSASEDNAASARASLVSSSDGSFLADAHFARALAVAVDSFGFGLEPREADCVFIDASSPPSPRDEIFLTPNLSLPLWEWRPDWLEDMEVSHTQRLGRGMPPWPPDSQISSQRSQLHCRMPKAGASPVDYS

binding result [1]: binds
binding result [2]: binds
binding result [3]: binds
B1: 抗ROBO4マウスモノクローナル抗体 MAb1 (antibody, V domains shown)
VH: EVQLVESGGGLVKPGGSLKLSCAASGFTFSTYAMSWVRQTPEKRLEWVATISNGGTYTYYPDSVKGRFTISRDNAENTLYLQMSSLRSEDTAMYFCARLIYYDYLDYWGHGTTLTVSS
VL: DAVMTQTPLSLPVSLGDQASISCRSSQSLENSNGNTYLNWYFQKPGQSPQLLIYRVSNRFSGVLDRFSGSGSGTDFTLKISRVEAEDFGVYFCLQVTHVPWTFGGGTKLEIKR
notes: Mouse IgG1 (gamma 1) / kappa from a hybridoma; The constant regions are not in the listing; also called MAb1
